Measured values published in the nanobody polyreactivity screen of Harvey et al. (2022).

Test: yeast display, Sf9 membrane polyspecificity reagent, FACS + sequencing; frameworks hold sequencing errors
In short: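 A synthetic nanobody library was expressed on Saccharomyces cerevisiae BJ5465 by galactose induction for 36–48 hours. The library was stained for 1 hour at 4 °C with 10% biotinylated, detergent-solubilized Sf9 membrane reagent and enriched with streptavidin microbeads before FACS. Low and high (top ~1%) gates were set on anti-HA fluorescence for expression and streptavidin fluorescence for reagent binding, and each polyreactivity label reflects the gate of origin.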

| Sequence | polyreactivity (PSR sort gate) |
| --- | --- |
| HVQLVESGGGLVQAGGSQRLSCAPSGSTFYYNAMGSYRQAPGKERELVAAISKTGGSTYYADSVKGRFTISRDYAKNTVYLQMNSLKPVDTAVYYCAAVGSRGAWARRGYWGQGTHVTVSS | high polyreactivity |
| HVQLVESGGGLVQARGSLRLSCAASGSTFDNYTMGWYRQAPGKERELVAAITRNSGSTYYADSVKGRFTISRDNEKNSVYLHMNSLKPEDTAVYYCAADSYYRRYFGWYEYWGQGTQVTVSS | high polyreactivity |
| HVQLVESGGGLVQEGGSLRLSCAASGSILNQNAMGWYRQARGKERELVASISWDGDRTYYADSVKGRFTISRDNAKNTVYLQMNSLKPEDTAVYYCAASFYGIDRMGYWGQGTQVTVSS | low polyreactivity |
| HVQLVESGGGLVQEGRSLRLSCAASGFTFVGNAMGWYRQATGKERELVAAIRWSSGSTYYADSVKWRFTISRDNAKNTVYLQMNSLKPDDTAVYYCNAVYSVFYEYDYWGQGTQVTVSS | low polyreactivity |
| HVQLVESGGVLVQAGGSLRLSCAASGRIFRQNTMGWYRQAPGKEREIDATISWRGTRTNYADSVKGRFTISRDNAKNTVYLQMNSLKPEDTAVYYCNAQSWAYTLRTSLYDYWGQGTQVTVSS | high polyreactivity |
| HVQLVESGVGLVQAAGILRLSCAASGRTFSVYVMGWYRQATGKERELVAAISTSGARTYYADSVKGRFTISRDHAKNTVFLQMNSLKPEATAVYYCGARAIYKSKYDYWGHGTQVTVSS | high polyreactivity |
| HVQLVESGVGLVQAGGSLRLSCAASGSTFDGYLMGWYRQAPGKERELVAAISRSGGSTYYADSVKGRFTIARDNAKNTVYLQMNSLKPEDTAVYYCAARNSPGLPGDYWGQGTQVTVSS | high polyreactivity |
| IIQAGGSLRLCCAASGRTISVYAMGWYTQAAGKERELIADITSGGSTNYADSVKGRFTISRDNAKNTVYLQRNSLKPEDTAVYYCVAERQIRSFWSSRTYVFGYWGQGTQVTVSS | low polyreactivity |
| IIQAGGSLRLSCAASGSTLIGYTMGWYRQAPGKERELVAAITWGAGSTNYADSVKGRFTISRDNAKNTVYLQMNSLKPEDTAVYYCNADSTSDPRYLGEYDYWGQGTQVTVSS | low polyreactivity |
| KDQLVESGGGLVQAGGSLRLSCAASGRTFSHYTMGWYIQAPGKERELVARITRRGGRTYYADSVKGRFTISRDDAKNTVFLQMISLKPEDSAVYFCANEPWGYTRYTTYDYWGQGTQVTVSS | high polyreactivity |
| KLQLVESGGGLDQAGGSLRLSCAASGSIFVAYAMGSYRQAPGKERELVAAISKSGGSKYYADSVKGRFTISRDNAKNTVFLQMNSLKPEDTAVYYCAAGSDDFSRFGYWGQGTQVTVSS | low polyreactivity |
| KVQHVESGGGLVQAGGSLRLSCAASGLTFYTNAMGWYRQPPGKESEFVADITTSGGDTYYADSVKGRFTISRDNAKNTVYLQMNSLKPEDTAVYYCGEFWSYWGYGQYDYWGQGTQVTVSS | low polyreactivity |
| KVQLGESGGGLVQAGGSLRLSCAASGFIFGYNGMGWYRQAPGKERELVAGITYSDGSTYYADSVKGRFTISRDNAKNTVYLQMNSLKPEDTAVYYCAVDVIYYWAEDYDYWGQGTQVTVSS | low polyreactivity |
| KVQLVDSGGGLVQAGGSLRLSCAASGSIFGDNAMGWYIQAPGKERELVAAISIVGSTSYADSVKGRFTISRDNAKNTVYLLMNSLKPEDTAVYYCAAENVRSDTGFDYCGQGTQVTVSS | low polyreactivity |
| KVQLVESGAGLVQAGGSLRFSCAASGSIFIVYAMGWYRPAPGKERELVADITNGGDTNYADSVKGRFTISRDNAKNTVYLQMNSLKPEDTAVYYCAKYLWSYRVRTNVWRSYYWGQGTQVSVSS | high polyreactivity |
| KVQLVESGGGFVQAGGSLRLSCAPSGSIFTWNAMGLYRQAPGKERELVAAITRGGSTYADSVKGRFTLSRDNAKNTVYLQMNSLKPEDTAVYYCNAVYGVYEFNYWGQGTQVTVSS | low polyreactivity |
| KVQLVESGGGLVHAGGSLRLSCAASGRIIYYYAMGWYRTAPGKERELVAAISGRGTSTYYADSVKGRFTISRDNAKNTVYLKMNSLKPEDTAVYYCAARYYYWGQGTQVTVSS | high polyreactivity |
| KVQLVESGGGLVHAGGSLRLSCAASGRTLYTNAMGWYRQAPGTERELVAAITSGASTNYADSVKGRFTISRDNAKNTVYLQMNSLKPEDTAVYYCAARTDHLWNARRYDYWGQGTQVTVSS | low polyreactivity |
| KVQLVESGGGLVQAGGSIRLSCDASGRSFYYYAMGWYRQAPGKEREWVAAINTRGTSTYYADSVKGRFTISRDNAKNTVYLQMNSLKPEDTAVYYCAVDPYGDSWEDWFRNYYYGYDYWGQGTQGTVSS | low polyreactivity |
| KVQLVESGGGLVQAGGSLRLSCAASGIFLDRNAMGWYRQAPGKERELVAAINSIGGSTYYADSVKGRFTISRDNAKNTVYLQMNSLKPEDTAVFYCAAPSTSSYYWGQGTQVTVSS | low polyreactivity |
| KVQLVESGGGLVQAGGSLRLSCAASGNTFYHYAMGWYRQAPGKERELVAGIRYNGGSTYYADSVKGRFTISRDNAKNTVYLHMKSLKPEDTAVYYCATKGYTGYAYRYGYWGQGTQVTVSS | high polyreactivity |
| KVQLVESGGGLVQAGGSLRLSCAASGSIFDLYTMGWYRQAPGKERELVATISSGGSTNYADSVKGRFTISRDNAKNTVNLQMNSLKPEDTAVYYCAAGSTHYDIHFDYWGQGTQVTVSS | low polyreactivity |

| Sequence | polyreactivity (PSR sort gate) |
| --- | --- |
| KVQLVESGGGLVQAGGSLRLSCAASGSIFTFNAMGWYRQAPGKERELVAAIRWSSGRTYYADSVKGRFTISRDNAKNTVYLQMNSLKPEDTAVYFCAAKDFGSFYESGYDYWGQGTQVTVSS | high polyreactivity |
| KVQLVESGGGLVQAGGSLRLSCAASGSNFVYNAMGWYRQAPGKEREFVAAISGSGGSTYYADSVKGRFTISRDNAKNTVYLQMNSLKPEDTAVYYCATAGRYGRYRTYPYRSKYDYWGQGTQVTVSS | high polyreactivity |
| KVQLVESGGGLVQAGGSLRLSCAPSGRTFRSNGMGWYIQAPGKERELVATISEGGGSTYYADSVKGRFTISRDNAKNTVYLEMISLKPEDSAVYFCAADKWYVLHYLDMNYWGQGTQVTVSS | high polyreactivity |
| KVQLVESGGVLVQAGGSLRLICAASGRTFYGYAMGWSRQAPGKERELVAGITSGGSTTYADSVKGRFTISRDHAKKTVYLQMNSLKPEDTAVYYCAKKWYRTTRAYVFRSYDYWGQGTQVTVSS | high polyreactivity |
| KVQLVESGLGLVQAGGSLRISCAASGSIFTQYTMGWYRQAHGKERELVASISDSGGSTYYADSVKGRFTISRDNAKNTVYLQMNSLKPEDTSVYYCASRHDRPRESNPYDYWGQGTQVTVSS | low polyreactivity |
| KVQRVDSGGGLVQAGGSLRLSCAASGSILGPYAMGWYRQAPGKERELVAGISGSGTRTYYADSVKGRFTISRDNAKNTVYLQMNSLKPEDTAVYYCAARYYSSWFRYPSYDYWGQGTQVTVSS | high polyreactivity |
| KVQVVESGGGLVQAGGSLRLSCAASGRIFGVYAMGWYRQAPGKERELVAAINYSGTRTYYADSVKGRFTISRDNAKNTVYLQMNSLKPEDSAVYYCAARRGSYSVTEYWGQGTQVTVSS | high polyreactivity |
| LVQHVQSGGGLVQAGGSLRVSCAASGPTLDSNAMGWYRQAPGKERELVAAISSAGSTNYPDSVKGRFTISRDNAKNTVYLQMNSLKPEDTAVYYSAADLIGSHDYWGQGTQVTVSS | low polyreactivity |
| LVQLQERVGVLVQAGGRLRLNCAASGTISPGGYMGWYRQAPGKELELVASINVGGSTNYADSVKGRFTISRDNAKNTVYLQMNRLKPEDNAVYYCAVWGRNRLQLSYWGQGTQVTVSS | low polyreactivity |
| LVQLQESGGGLVQAGGSLRLSCAASGTISPGGYMGWYRQAPGQERELVASINVGGSTNYADSVKGRFTISRDNAKNPVDLQMNSLKPEDNAVYYCAVWGRNRLQLSYWGQGTQVTVSS | low polyreactivity |
| LVQLVESGGGLVQAGGSLRLSCAASGFIFFGEYVMGWYRQAPGKEREFVAAITDSDGSTYYADSVKGSFTISRDNGKNTVYLQMISLKPEDTAVYYCAAERVYSDMDYWGQGTQVTVSS | low polyreactivity |
| LVQLVESGGGLVQAGGSLRLSCAASGFISPSYALGWYRQAPGKERELVAAIRSSDGSTYYADSVKGRFTISRDNAKNTAYVQMNSRKPEDTAVYYCAAGGSSYRDDYWGQGSQVTVSS | low polyreactivity |
| LVQLVESGGGLVQAGGSLRLSCAASGSICNANAMGWYRQAPGKERELVAGIRSGSSTNYADSVKGRVTISRDNAKNTVYLQMNSLKPEDTPVYYCATEGYWVYGFDDEYWGQGTQVTVSS | low polyreactivity |
| LVQLVESGGGLVQAGGSLRLSCAASGSTFDGYAMGWYRQAPGKERELVAAIAYSGSSTYYADSVTGRFTISRDNSKNTVYIQMNSQKQEDTAVYYCAVDDTHPFGPDGGGDYWGQGTQVTVSS | low polyreactivity |
| NVQLVESGGGLVQAGGSLRLSCAASGRTFPTYAMGWYRQAPGKERELVAAISSSGGSTYYADSVKGRFTISRDNAKNTVYLQMNSLKPEDTAVYYCAALRARNLNPGYDYWGQGTQVTVSS | low polyreactivity |
| PLQLVESGGGLVQAGGSLRLSCAATGFIFAVNAMGWYRQAPGKERELVAAISSSGTTNYADSVKGRFTISRDNAKNTVYLQMNSLKPEDTAVYYCAADYHGSPEYDYWGQGTQVTVSS | low polyreactivity |
| PVKLVESGGGLVQAGGSLRLSCAASGFTFFRNAMGWYRQAPGKERELVAAISGSGGRTYDADSVKGRFTISRDNAKNPVYLQLNSLKLEDTAVYYCAAVPVDPGYDYWGQGTQVTVSS | high polyreactivity |
| PVQLQESGGGLVQAGGSLRLSCAASGNIFDADIMGWYRQAPGKERELVACIADGGSTNYADSVKGRFTISRDNAKNTVYLQMNSLKPEDTAVYYCAAIAYPDIPTCFDYDSDYFIRGQGTQVTVSS | low polyreactivity |
| PVQLVEAGGGLVQAGGSLRLSCAASGFTIRIYTMGWYRQAPGKERELVAAISSRGGSTYYADSVKGRFTISRDNAKITVYLQMNSLKPEDTAVYYCAKTPYYRYAKQRYTSSHDYWGQGTQVTVSS | high polyreactivity |
| PVQLVESGGGLVQAGGSLRISCAASGRSFYVYAMGWYRQAPGKEREFVARITSNGGSPTYADSVKGRFTISRDKAKNTVYLQMNSLKPEDTAVYYCNADDGIHPNASPSFPQYDYWGPGTQVTVSS | low polyreactivity |
| PVQLVESGGGLVQAGGSLRLSCAAAGLTFPPNAMGWYRQAPGKERELVADSGGSTNYADSVKGRFTISRDNAKNTVYLQMNSLNPEDTAVYYCAVPPYSDGQWDDYWGQGTQVTVSS | low polyreactivity |
